Measured values from patent US20180009908.
Substitutions are numbered along the chain they refer to. Numbers in names are those of the source.

Assays:
[1] = biological target: T1, HA-tagged human IgG1 Fc portion with CH3 mutations E345R, Q347R, T366V, K409V; experiment: UPLC SEC of protein G-purified one-arm antibody co-expressed in HEK293F
T1 chain: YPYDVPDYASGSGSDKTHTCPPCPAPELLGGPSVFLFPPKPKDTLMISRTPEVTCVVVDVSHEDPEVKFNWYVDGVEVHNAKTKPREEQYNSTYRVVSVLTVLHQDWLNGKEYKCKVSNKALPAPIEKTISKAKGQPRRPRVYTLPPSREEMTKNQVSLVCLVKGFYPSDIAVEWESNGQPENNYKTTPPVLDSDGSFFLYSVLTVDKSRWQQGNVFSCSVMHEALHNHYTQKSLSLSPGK

[2] = biological target: T2, HA-tagged human IgG1 Fc portion with CH3 mutations K360D, D399M, Y407A; experiment: as above
T2 chain: T1 chain with R139E, R141Q, K154D, V160T, D193M, Y201A, V203K

[3] = LCMS, IgG1 BsAb co-expression; HCA homodimer species
[4] = biological target: BHA10 HC_7.8_B + BHA10 LC (IgG1); experiment: LCMS, IgG1 BsAb co-expression in HEK293F
[5] = biological target: matuzumab HC_7.8_B + matuzumab LC (IgG1); experiment: LCMS, IgG1 BsAb co-expression in HEK293F
[6] = biological target: BHA10 HC_7.8_B + BHA10 LC (IgG1); experiment: LCMS, IgG1 BsAb co-expression; HCA/HCB heterodimer carrying two LC2
[7] = biological target: matuzumab HC_7.8_B + matuzumab LC (IgG1); experiment: as above
[8] = biological target: BHA10 HC_7.8_B + BHA10 LC (IgG1); experiment: LCMS, IgG1 BsAb co-expression; HCA/HCB heterodimer carrying two LC1
[9] = biological target: matuzumab HC_7.8_B + matuzumab LC (IgG1); experiment: as above
[10] = LCMS, IgG4 BsAb co-expression; HCA homodimer species
[11] = biological target: BHA10 HC_20.8.34_B + BHA10 LC (IgG4 HC backbone); experiment: LCMS, IgG4 BsAb co-expression in HEK293F
[12] = biological target: matuzumab HC_20.8.34_B + matuzumab LC (IgG4 HC backbone); experiment: LCMS, IgG4 BsAb co-expression in HEK293F
[13] = biological target: BHA10 HC_20.8.34_B + BHA10 LC (IgG4 HC backbone); experiment: LCMS, IgG4 BsAb co-expression; HCA/HCB heterodimer carrying two LC2
[14] = biological target: matuzumab HC_20.8.34_B + matuzumab LC (IgG4 HC backbone); experiment: as above
[15] = biological target: BHA10 HC_20.8.34_B + BHA10 LC (IgG4 HC backbone); experiment: LCMS, IgG4 BsAb co-expression; HCA/HCB heterodimer carrying two LC1
[16] = biological target: matuzumab HC_20.8.34_B + matuzumab LC (IgG4 HC backbone); experiment: as above
[17] = biological target: matuzumab HC_20.8_B + matuzumab LC (IgG1); experiment: LCMS, IgG1 BsAb co-expression in HEK293F
[18] = biological target: BHA10 HC_20.8_B + BHA10 LC (IgG1); experiment: LCMS, IgG1 BsAb co-expression in HEK293F
[19] = biological target: matuzumab HC_20.8_B + matuzumab LC (IgG1); experiment: LCMS, IgG1 BsAb co-expression; HCA/HCB heterodimer carrying two LC2
[20] = biological target: BHA10 HC_20.8_B + BHA10 LC (IgG1); experiment: as above
[21] = biological target: matuzumab HC_20.8_B + matuzumab LC (IgG1); experiment: LCMS, IgG1 BsAb co-expression; HCA/HCB heterodimer carrying two LC1
[22] = biological target: BHA10 HC_20.8_B + BHA10 LC (IgG1); experiment: as above
[23] = biological target: BHA10 HC_7.8.60_B + BHA10 LC (IgG4 HC backbone); experiment: LCMS, IgG4 BsAb co-expression in HEK293F
[24] = biological target: matuzumab HC_7.8.60_B + matuzumab LC (IgG4 HC backbone); experiment: LCMS, IgG4 BsAb co-expression in HEK293F
[25] = biological target: BHA10 HC_7.8.60_B + BHA10 LC (IgG4 HC backbone); experiment: LCMS, IgG4 BsAb co-expression; HCA/HCB heterodimer carrying two LC2
[26] = biological target: matuzumab HC_7.8.60_B + matuzumab LC (IgG4 HC backbone); experiment: as above
[27] = biological target: BHA10 HC_7.8.60_B + BHA10 LC (IgG4 HC backbone); experiment: LCMS, IgG4 BsAb co-expression; HCA/HCB heterodimer carrying two LC1
[28] = biological target: matuzumab HC_7.8.60_B + matuzumab LC (IgG4 HC backbone); experiment: as above
[29] = pertuzumab × matuzumab bispecific
[30] = Pertuzumab × BHA10 IgG BsAbs (with select CH3 Designs)
[31] = Pertuzumab × Matuzumab IgG BsAbs (with select CH3 Designs)

B1: anti-c-Met 5D5 VH-human IgG1 HC with CH3 mutations K360D, D399M, Y407A, with 5D5 light chain (protein)
chain 1: EVQLVESGGGLVQPGGSLRLSCAASGYTFTSYWLHWVRQAPGKGLEWVGMIDPSNSDTRFNPNFKDRFTISADTSKNTAYLQMNSLRAEDTAVYYCATYRSYVTPLDYWGQGTLVTVSSASTKGPSVFPLAPSSKSTSGGTAALGCLVKDYFPEPVTVSWNSGALTSGVHTFPAVLQSSGLYSLSSVVTVPSSSLGTQTYICNVNHKPSNTKVDKRVEPKSCDKTHTCPPCPAPELLGGPSVFLFPPKPKDTLMISRTPEVTCVVVDVSHEDPEVKFNWYVDGVEVHNAKTKPREEQYNSTYRVVSVLTVLHQDWLNGKEYKCKVSNKALPAPIEKTISKAKGQPREPQVYTLPPSREEMTDNQVSLTCLVKGFYPSDIAVEWESNGQPENNYKTTPPVLMSDGSFFLASKLTVDKSRWQQGNVFSCSVMHEALHNHYTQKSLSLSPGK
chain 2: DIQMTQSPSSLSASVGDRVTITCKSSQSLLYTSSQKNYLAWYQQKPGKAPKLLIYWASTRESGVPSRFSGSGSGTDFTLTISSLQPEDFATYYCQQYYAYPWTFGQGTKVEIKRTVAAPSVFIFPPSDEQLKSGTASVVCLLNNFYPREAKVQWKVDNALQSGNSQESVTEQDSKDSTYSLSSTLTLSKADYEKHKVYACEVTHQGLSSPVTKSFNRGEC
In the case of B1, the % heterodimer (UPLC) [1] is reported as 93%.

B2: anti-c-Met 5D5 VH-human IgG1 HC with CH3 mutations E345R, Q347R, T366V, K409V, with 5D5 light chain (protein)
chain 1: B1 chain 1 with E347R, Q349R, D362K, T368V, M401D, A409Y, K411V
chain 2: B1 chain 2
With B2 the % heterodimer (UPLC) [2] was 93.3%.

B3: pertuzumab HC_7.8_A + pertuzumab LC (IgG1) (protein)
chain 1: EVQLVESGGGLVQPGGSLRLSCAASGFTFTDYTMDWVRKAPGKGLEWVADVNPNSGGSIYNQEFKGRFTLSVDRSKNTLYLQMNSLRAEDTAVYYCARNLGPSFYFDYWGQGTLVTVSSASTKGPSVFPLAPSSKSTSGGTAALGCLVKDYFPEPVTVSWNSGALTSGVATGPAVLQSSGLYSLSSVVTVPSSSLGTQTYICNVNHKPSNTKVDKKVEPKSCDKTHTCPPCPAPELLGGPSVFLFPPKPKDTLMISRTPEVTCVVVDVSHEDPEVKFNWYVDGVEVHNAKTKPREEQYQSTYRVVSVLTVLHQDWLNGKEYKCKVSNKALPAPIEKTISKAKGQPREPQVYTLPPSREEMTKNQVSLTCLVKGFYPSDIAVEWESNGQPENNYKTTPPVLMSDGSFFLASKLTVDKSRWQQGNVFSCSVMHEALHNHYTQKSLSLSPGK
chain 2: RIQMTQSPSSLSASVGDRVTITCKASQDVSIGVAWYQDKPGKAPKLLIYSASYRYTGVPSRFSGSGSGTDFTLTISSLQPEDFATYYCQQYYIYPYTFGQGTKVEIKGQPKAAPSVTLFPPSSEELQANKATLVCYISDFYPGAVTVAWKADSSPVKAGVETTTPSKQSNNKYAAWSYLSLTPEQWKSHRSYSCQVTHEGSTVEKTVAPTEC
In the case of B3, the % AA Homodimer (incorrect assembly) ([3]; pertuzumab × BHA10 bispecific) is reported as 0%, the % AA Homodimer (incorrect assembly) [3, 29] is reported as 0.5% and the % AB (LC1/LC2) (correct IgG BsAb assembly) [4] is reported as 69.3%. For the same protein, the % AB (LC1/LC2) (correct IgG BsAb assembly) [5] was 95.4%, the % AB (2x LC2) (incorrect assembly) [6] was 0% and the % AB (2x LC2) (incorrect assembly) [7] was 1.2%. For the same protein, the % AB (2x LC1) (incorrect assembly) [8] was 15.6% and the % AB (2x LC1) (incorrect assembly) [9] was 0%.

B4: pertuzumab HC_20.8.34_A + pertuzumab LC (IgG4 HC backbone) (protein)
chain 1: EVQLVESGGGLVQPGGSLRLSCAASGFTFTDYTMDWVRKAPGKGLEWVADVNPNSGGSIYNQEFKGRFTLSVDRSKNTLYLQMNSLRAEDTAVYYCARNLGPSFYFDYWGQGTLVTVSSASTKGPSVFPLAPCSRSTSESTAALGCLVKDYFPEPVTVSWNSGALTSGVATGPAVLQSSGLYSLSSVVTVPSSSLGTKTYTCNVDHKPSNTKVDKRVESKYGPPCPPCPAPEAAGGPSVFLFPPKPKDTLMISRTPEVTCVVVDVSQEDPEVQFNWYVDGVEVHNAKTKPREEQFQSTYRVVSVLTVLHQDWLNGKEYKCKVSNKGLPSSIEKTISKAKGQPREPQVSTLPPSQEEMTKNQVSLMCLVYGFYPSDIAVEWESNGQPENNYKTTPPVLDSDGSFFLYSVLTVDKSRWQEGNVFSCSVMHEALHNHYTQKSLSLSLG
chain 2: B3 chain 2
B4 showed a % AA Homodimer (incorrect assembly) [10, 30] of 5.2%, a % AA Homodimer (incorrect assembly) [10, 31] of 2.3% and a % AB (LC1/LC2) (correct IgG BsAb assembly) [11] of 94.8%. For the same protein, the % AB (LC1/LC2) (correct IgG BsAb assembly) [12] was 94.1%, the % AB (2x LC2) (incorrect assembly) [13] was 0% and the % AB (2x LC2) (incorrect assembly) [14] was 0%. The % AB (2x LC1) (incorrect assembly) [15] was 0% and the % AB (2x LC1) (incorrect assembly) [16] was 0%.

B5: pertuzumab HC_20.8_A + pertuzumab LC (IgG1) (protein)
chain 1: B3 chain 1 with Y351S, T368V, K372Y, M401D, A409Y, K411V
chain 2: B3 chain 2
B5 showed a % AA Homodimer (incorrect assembly) ([3]; pertuzumab × BHA10 bispecific) of 3.5%, a % AA Homodimer (incorrect assembly) [3, 29] of 2.1% and a % AB (LC1/LC2) (correct IgG BsAb assembly) [17] of 96%. The % AB (LC1/LC2) (correct IgG BsAb assembly) [18] was 96.5%, the % AB (2x LC2) (incorrect assembly) [19] was 0% and the % AB (2x LC2) (incorrect assembly) [20] was 0%. It also gave a % AB (2x LC1) (incorrect assembly) [21] of 0% and a % AB (2x LC1) (incorrect assembly) [22] of 0%.

B6: pertuzumab HC_7.8.60_A + pertuzumab LC (IgG4 HC backbone) (protein)
chain 1: B4 chain 1 with S348Y, K359D, M365T, Y369K, D398M, Y406A, V408R
chain 2: B3 chain 2
Work on B6 yielded a % AA Homodimer (incorrect assembly) [10, 30] of 0%, a % AA Homodimer (incorrect assembly) [10, 31] of 9.1% and a % AB (LC1/LC2) (correct IgG BsAb assembly) [23] of 95.8%. The % AB (LC1/LC2) (correct IgG BsAb assembly) [24] was 90.9%, the % AB (2x LC2) (incorrect assembly) [25] was 0% and the % AB (2x LC2) (incorrect assembly) [26] was 0%. The % AB (2x LC1) (incorrect assembly) [27] was 0% and the % AB (2x LC1) (incorrect assembly) [28] was 0%.
